From article PMC3192862 (Molecular Biology of the Cell, 2011)
Substitutions are numbered along the chain they refer to. In names and notes the source's numbering stands.

T1: fission yeast profilin (fission yeast, UniProt P39825 1-127)
T1 sequence (looked up): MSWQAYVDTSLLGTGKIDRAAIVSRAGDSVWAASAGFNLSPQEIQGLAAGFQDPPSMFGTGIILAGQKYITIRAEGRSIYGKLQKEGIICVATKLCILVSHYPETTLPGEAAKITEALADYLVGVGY

B1: Cdc12(FH1) (domain or fragment, S. pombe, UniProt Q10059 882-972, looked up)
chain: NNSKITNFDIPNDATSLPTIITHPTPPPPPPLPVKTSLNTFSHPDSVNIVANDTSVAGVMPAFPPPPPPPPPLVSAAGGKFVSPAVSNNIS
B2: Fus1(FH1) (domain or fragment, S. pombe, UniProt Q10719 792-862, looked up)
chain: MRIKEVIDGNPFKAPPPAPLPPPAPPLPTAMSSLQKFEKNDSQIFRKTIIIPENISIDDIFKFCSGSESEV
B3: For3(FH1) (domain or fragment, S. pombe, UniProt O94532 718-837, looked up)
chain: SDTVEEQQKLLLKSPPPPPPAVIVPTPAPAPIPVPPPAPIMGGPPPPPPPPGVAGAGPPPPPPPPPAVSAGGSRYYAPAPQAEPEPKIDETSLTEEQKIQLEEARKQRKAADDAARAAIE
B4: Cdc12(FH2), wild type (domain or fragment, S. pombe, UniProt Q10059 973-1390, looked up)
chain: KDDLHKTTGLTRRPTRRLKQMHWEKLNSGLEFTFWTGPSDEANKILETLHTSGVLDELDESFAMKEAKTLVKKTCARTDYMSSELQKLFGIHFHKLSHKNPNEIIRMILHCDDSMNECVEFLSSDKVLNQPKLKADLEPYRIDWANGGDLVNSEKDASELSRWDYLYVRLIVDLGGYWNQRMNALKVKNIIETNYENLVRQTKLIGRAALELRDSKVFKGLLYLILYLGNYMNDYVRQAKGFAIGSLQRLPLIKNANNTKSLLHILDITIRKHFPQFDNFSPELSTVTEAAKLNIEAIEQECSELIRGCQNLQIDCDSGALSDPTVFHPDDKILSVILPWLMEGTKKMDFLKEHLRTMNTTLNNAMRYFGEQPNDPNSKNLFFKRVDSFIIDYSKARSDNLKSEEEEASQHRRLNLVN
B5: Cdc12(FH2) G1201R, N1202P (domain or fragment, S. pombe, UniProt Q10059 973-1390, looked up)
chain: B4 chain with G229R, N230P
B6: Cdc12(FH2) I1063A (domain or fragment, S. pombe, UniProt Q10059 973-1390, looked up)
chain: B4 chain with I91A
B7: Cdc12(FH2) K1226A (domain or fragment, S. pombe, UniProt Q10059 973-1390, looked up)
chain: B4 chain with K254A
B8: Cdc12(FH2) K991A (domain or fragment, S. pombe, UniProt Q10059 973-1390, looked up)
chain: B4 chain with K19A

Each binder was assayed against T1, fission yeast profilin (assay: other fluorescence titration).

| Kd | Binder |
| --- | --- |
| 1700 nM | B1 |
| 1300 nM | B2 |
| 6500 nM | B3 |

Biological target: the molecule itself
Experiment: SEC

| Binder | binding result |
| --- | --- |
| B4 | binds |
| B5 | binds |
| B6 | binds |
| B7 | binds |
| B8 | binds |
